This sample holds only a part of the variants without activity.
B1: TPR 5TU (parent)
chain: GGAUCUUCUCGAUCUAACAAAAAAGACAAAUCUGCCACAAAGCUUGAGAGCAUCUUCGGAUGCAGAGGCGGCAGCCUUCGGUGGCGCGAUAGCGCCAACGUUCUCAACUAUGACACGCAAAACGCGUGCUCCGUUGAAUGGAGUUUAUCAUG

Variants of: B1
Assay: polymerase ribozyme fitness, log enrichment relative to wild type (log ratio); higher = more active; in vitro selection for triplet polymerase activity
Procedure, shortened: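 Each subunit of a heterodimeric triplet polymerase ribozyme was mutagenized into a library by PCR, transcribed, and subjected to one round of in vitro selection, run in triplicate. Libraries were annealed with a biotinylated primer, the partner subunit and triplets, incubated frozen at −7 °C, and extended constructs were gel-excised, captured on streptavidin beads and recovered by RT-PCR. Input and output libraries were sequenced on Illumina, keeping genotypes with ≥10 input reads and ≥1 read per output. Fitness is log base 2 of genotype enrichment divided by wild-type enrichment, from inverse-variance-weighted replicate averages.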

Row | Variant | polymerase ribozyme fitness (log ratio)
1 | U15C G46A G59A C93A | -3.01
2 | U15A A19C A52G G83A C103G | -3.83
3 | C14U A21G A49G | -2.56
4 | C14U A20C U33A C93G C103G C118U | ≤ -4.2
5 | C14G U15G A19C A22C A41G G58C C93U | -3.91
6 | U15A A17C A23U U55A G84A G92A G94A U102G C116G | ≤ -4.2
7 | U15C A22C C36A A106G G143A | ≤ -4.2
8 | U15G G34A C75A A150U | ≤ -4.2
9 | U15G A16C A30C A47C C85A G133C G143C A150U | ≤ -4.2
10 | U15A A39G U53A A73U C85U G124U U134C U135C | ≤ -4.2
11 | C14U G62C C75A C93G | ≤ -4.2
12 | C14U A17U A24U C76A C85U | -3.79
13 | C14U A26U C54U C79U G94A U111G C123U | ≤ -4.2
14 | C14U C85A G140A | ≤ -4.2
15 | C14U A28U C51G A97G | ≤ -4.2
16 | U15A C38A A41C C75U U135C | -3.63
17 | C14U U55A U56A C76A | -2.4
18 | U15C A21C U61A G62C C95A U104A A138U | ≤ -4.2
19 | U15A A47C G48C G58C C125U G140A | ≤ -4.2
20 | U15A A17C C32G A60G C99U C116U | ≤ -4.2
21 | U15C A23C A30G U44A G70A C87A G141C | ≤ -4.2
22 | C14U A19U U55A | -1.9
23 | C14U G92A C103G | ≤ -4.2
24 | U15A A16G G58U C69G C85U A89U C96U C108U | ≤ -4.2

Row | Variant | polymerase ribozyme fitness (log ratio)
25 | C14G U148A | -4.14
26 | U15A G74U C79G | ≤ -4.2
27 | C14U G81A | -1.14
28 | C14U A29U C54G G83U G84U C105G U151G | ≤ -4.2
29 | U15A G25A G42C C79A | ≤ -4.2
30 | C14U U56A | -1.8
31 | C14U C18A A28U C54A A91G U148G | ≤ -4.2
32 | C14U C87U U102C | -4.18
33 | C14G U55G C57U G86C C125G A137U | ≤ -4.2
34 | U15C A40C C93A C95U C116A A121U | -1.18
35 | C14U A138C | -3.75
36 | U15C A22G A47C U55A G88C U139C | ≤ -4.2
37 | A16C A20C A41C C85G C116U | -3.81
38 | C14U A47C C54U G84A | -1.86
39 | U15G A26U C38G G42A U44A C95G C99U | ≤ -4.2
40 | U15G C103A | -1.91
41 | C14U C57G C85U G152A | -3.89
42 | U15A G50U C95U C99G C105U A115G A150C | ≤ -4.2
43 | C14G U15C G84U | -1.26
44 | U15A A52C A66C G84U | ≤ -4.2
45 | U15G A17C C27G C51A G59A C75U C87U | ≤ -4.2
46 | C14U A21G A29G C85U C116A | -4.2
47 | U15A A26C G34U C105G G143C | ≤ -4.2
48 | C14U U135C | -3.88

Row | Variant | polymerase ribozyme fitness (log ratio)
49 | U15A C63U U151A | -3.9
50 | U15G U56G U77C C87G G94A U104G A106U C123U | ≤ -4.2
51 | U15A C35U U55A C96G A107U U135C | ≤ -4.2
52 | U15A A20G U44A A121C G136U | ≤ -4.2
53 | U15G C18U U56C G83A C87U | -1.58
54 | U15G C132A | -2.26
55 | C14U G84U A107U A147U | ≤ -4.2
56 | C14U A17G G83A C108U | ≤ -4.2
57 | C14U A17C C18G A20G G59U C85U A91U C118U G140A | ≤ -4.2
58 | U15G G48U C54U C123A G136U | -2.93
59 | U15A A29G U78A G88A G126U U135G U148G | ≤ -4.2
60 | C14U C27U U90C A91U C116G | -3.77
61 | C14U C32G U33G A47U U53A G74A C95G A106G U135A | ≤ -4.2
62 | C14U A115G | -2.56
63 | U15C C18U C85G C118U G136U | -3.19
64 | U15G G88A | -4.08
65 | C14U C118U | -1.65
66 | U15G A98G A122C G124U | -1.76
67 | C14U G67A U151C | ≤ -4.2
68 | U15G A28U G46C C57U C85A G86U U90A C95U C105U | ≤ -4.2
69 | A16C A20C G84U A97U U130C | -4.17
70 | C14U G83U G88C A147G | ≤ -4.2
71 | U15C A20U A41U C57G A98G | -1.74
72 | C14U G34U G68A C85U U144A C149A | ≤ -4.2

Row | Variant | polymerase ribozyme fitness (log ratio)
73 | U15G A22U U53A A121C A147C | 0.0126
74 | U15A A142C | -0.894
75 | C14U A41C C75G G84U C118A | ≤ -4.2
76 | U15A A21G C36G A60C C96A A147C | ≤ -4.2
77 | U15G G48A U53A A73G C85A | ≤ -4.2
78 | U15A C32A U56G G58U G84U C108U U139G | ≤ -4.2
79 | C14G U61A C87U C95G U135G A142C | ≤ -4.2
80 | C14U A40G U56A G59C C76U A121U | -4.02
81 | U15G G50U U61A C93G C105U A107G | ≤ -4.2
82 | U15C A26U C57G G59U C87A G88A A107U U148G | ≤ -4.2
83 | U15C A20G A21U A39U C76U C85A C103A C108U | ≤ -4.2
84 | A16C A19U A73G C87A | ≤ -4.2
85 | U15G A47C G83C | -1.85
86 | U15G C51A C93A G124U U145A | -3.28
87 | U15G A40G C96U A97G G141A | -3.18
88 | U15A A20C G59A A60U C93G C105U G133U | ≤ -4.2
89 | U15G A49C G50A U78A A91C C93A G126U | ≤ -4.2
90 | C14U C72A C85G G133U | ≤ -4.2
91 | U15G C18G G50C U53G G92A U148G | ≤ -4.2
92 | C14U C85U | -1.65
93 | U15G A17C A40C | 0.895
94 | C14U C27G G94C G133U A150G | ≤ -4.2
95 | U15G C18A A23C A60G U104G C123G | ≤ -4.2
96 | C14U U15C A23U A41U C85A | ≤ -4.2

Row | Variant | polymerase ribozyme fitness (log ratio)
97 | C14U C35U C85U A106G A115G | -3.81
98 | U15G C93A U109C | ≤ -4.2
99 | U15A A39U C96U C114A A122G C123U C125A | -4.11
100 | C14U C87U U101C C118G | -3.29
101 | U15G A89C A119U | -0.888
102 | C14U A24C U53A G67U C108U A150G | ≤ -4.2
103 | U15G A20U A37G U45A G50C G70U C95U C118G G141C A147C G152A | ≤ -4.2
104 | U15G A28G C79A G124U | ≤ -4.2
105 | U15G A16U A41C A52C G81C G83U A106U U127A | ≤ -4.2
106 | U15C G34C C57A G84U A98U | -2.33
107 | U15G A21C A49C C54U G86A | ≤ -4.2
108 | C14U C79A G84A A150G | ≤ -4.2
109 | U15A G59U C79G C93A U134A | ≤ -4.2
110 | C14U A64G A91U C105G | ≤ -4.2
111 | A16C A20C C85A G141C | -2.3
112 | U15G A17G C38A G62C G81A C85G | ≤ -4.2
113 | U15G C85U | -0.0947
114 | U15G G50C C95A C99U A120U | ≤ -4.2
115 | U15A C36U C87U G124U A137C | -4.03
116 | C14U G58C C85U A89G G136A | -3.44
117 | U15G C54U A60U C75G A113G | ≤ -4.2
118 | U15C A26C C36U G84A A147U | -3.47
119 | U15A A24G G25U C32A U56A G59C U82G C103G | ≤ -4.2
120 | U15A A22G C36A C72U C85U C132U | ≤ -4.2

Row | Variant | polymerase ribozyme fitness (log ratio)
121 | U15A C57A C76U G84C | -1.52
122 | U15C A19G C69G C76A C79G G84U C95A A110U | ≤ -4.2
123 | U15A G50U C95G C132G | ≤ -4.2
124 | U15G A22U U56A A66C G117A A138G U146C | ≤ -4.2
125 | C14U A17U A28G U44A A73G C95A G100U A106G A115G | ≤ -4.2
126 | U15A A40C | 0.538
127 | U15A | -0.182
128 | U15C | 0.917
129 | U15G | -0.334
130 | C14U A17C C35G G141C U151A | ≤ -4.2
131 | U15A A21C A73G C95U U135G A138G U139C | ≤ -4.2
132 | C14U C18A A20C C93A G136A A142C | -2.57
133 | C14G U82C | -3.65
134 | U15G G42A C75A G83U A122U G128A | ≤ -4.2
135 | U15G G94C C96U U111A G152A | ≤ -4.2
136 | U15C C93G | -2.27
137 | U15A C51U G86U | -1.69
138 | U15C C36A A60U C85G C116U | ≤ -4.2
139 | C14U C93A | -3.4
140 | C14U U15G U45A G58U C75G U135C | ≤ -4.2
141 | U15G A28G A29U C36G A40G G94U U102C A122G U139G | ≤ -4.2
142 | U15G C51U G86U A89U C114U | ≤ -4.2
143 | C14G U53A C54A U61G G62U U146C | ≤ -4.2
144 | U15C C75A C96G | ≤ -4.2

Row | Variant | polymerase ribozyme fitness (log ratio)
145 | C14U A23C | ≤ -4.2
146 | U15C A22G G42A G84A G133U | ≤ -4.2
147 | C14U C54G C93A C95G A150G | ≤ -4.2
148 | U15C G80C C93G C116G | -4.05
149 | C14U A47C G50A G70A U77C C85A C125G C132A A142U | ≤ -4.2
150 | U15C G84U | -0.83
151 | U15A C54U G92A | -3
152 | C14U A19C C76U C99U | -3.03
153 | U15A G25C A29C G48C A64U C93U C95A C149A | ≤ -4.2
154 | U15G G94C A115C C116G | -3.85
155 | C14U A17U A19C U44A G68A A73G G86U C96U C149G | ≤ -4.2
156 | U15G G25U | -3.22
157 | U15G A37C A47C C95U | -1.64
158 | C14U A19U C87U C99A | -3.91
159 | A16C A20C A39U G42C C76A C95A | ≤ -4.2
160 | U15C C35G A39U A73G G83C G100A A107G C125A G141U | ≤ -4.2
161 | C14U C96A | -1.59
162 | U15G U77A U78G G88U C149G | ≤ -4.2
163 | U15G A20U C54U C85G G94U U104C | -2.12
164 | U15A A26C | -1.44
165 | C14U C54U G84A G133U | -3.87
166 | C14U G50C U56G C69U C118U | ≤ -4.2
167 | C14U U45A A91U U127G | ≤ -4.2

Source: the RNAGym collection of RNA variant scans (doi:10.1073/pnas.2313332121)
